# Square brackets hold non-standard residues; d marks the D form. Aib = CC(C)(N)C(=O)O
# B1: Compound 11 (peptide)
# peptide: H-Y[Aib]EGTFTSDYLIYLDKKAQRAFVNWLLA[Aib]K-NH2
# SMILES: CC[C@H](C)[C@H](NC(=O)[C@H](CC(C)C)NC(=O)[C@H](Cc1ccc(O)cc1)NC(=O)[C@H](CC(=O)O)NC(=O)[C@H](CO)NC(=O)[C@@H](NC(=O)[C@H](Cc1ccccc1)NC(=O)[C@@H](NC(=O)CNC(=O)[C@H](CCC(=O)O)NC(=O)C(C)(C)NC(=O)[C@@H](N)Cc1ccc(O)cc1)[C@@H](C)O)[C@@H](C)O)C(=O)N[C@@H](Cc1ccc(O)cc1)C(=O)N[C@@H](CC(C)C)C(=O)N[C@@H](CC(=O)O)C(=O)N[C@@H](CCCCN)C(=O)N[C@@H](CCCCN)C(=O)N[C@@H](C)C(=O)N[C@@H](CCC(N)=O)C(=O)N[C@@H](CCCNC(=N)N)C(=O)N[C@@H](C)C(=O)N[C@@H](Cc1ccccc1)C(=O)N[C@H](C(=O)N[C@@H](CC(N)=O)C(=O)N[C@@H](Cc1c[nH]c2ccccc12)C(=O)N[C@@H](CC(C)C)C(=O)N[C@@H](CC(C)C)C(=O)N[C@@H](C)C(=O)NC(C)(C)C(=O)N[C@@H](CCCCN)C(N)=O)C(C)C
# B2: Compound 13 (peptide)
# peptide: H-Y[Aib]EGTFTSDYSIYSDKKAQRAFVNWLLA[Aib]K-NH2
# SMILES: CC[C@H](C)[C@H](NC(=O)[C@H](CO)NC(=O)[C@H](Cc1ccc(O)cc1)NC(=O)[C@H](CC(=O)O)NC(=O)[C@H](CO)NC(=O)[C@@H](NC(=O)[C@H](Cc1ccccc1)NC(=O)[C@@H](NC(=O)CNC(=O)[C@H](CCC(=O)O)NC(=O)C(C)(C)NC(=O)[C@@H](N)Cc1ccc(O)cc1)[C@@H](C)O)[C@@H](C)O)C(=O)N[C@@H](Cc1ccc(O)cc1)C(=O)N[C@@H](CO)C(=O)N[C@@H](CC(=O)O)C(=O)N[C@@H](CCCCN)C(=O)N[C@@H](CCCCN)C(=O)N[C@@H](C)C(=O)N[C@@H](CCC(N)=O)C(=O)N[C@@H](CCCNC(=N)N)C(=O)N[C@@H](C)C(=O)N[C@@H](Cc1ccccc1)C(=O)N[C@H](C(=O)N[C@@H](CC(N)=O)C(=O)N[C@@H](Cc1c[nH]c2ccccc12)C(=O)N[C@@H](CC(C)C)C(=O)N[C@@H](CC(C)C)C(=O)N[C@@H](C)C(=O)NC(C)(C)C(=O)N[C@@H](CCCCN)C(N)=O)C(C)C
# B3: Compound 12 (peptide)
# peptide: H-Y[Aib]EGTFTSDYSIALDKKAQRAFVNWLLA[Aib]K-NH2
# SMILES: CC[C@H](C)[C@H](NC(=O)[C@H](CO)NC(=O)[C@H](Cc1ccc(O)cc1)NC(=O)[C@H](CC(=O)O)NC(=O)[C@H](CO)NC(=O)[C@@H](NC(=O)[C@H](Cc1ccccc1)NC(=O)[C@@H](NC(=O)CNC(=O)[C@H](CCC(=O)O)NC(=O)C(C)(C)NC(=O)[C@@H](N)Cc1ccc(O)cc1)[C@@H](C)O)[C@@H](C)O)C(=O)N[C@@H](C)C(=O)N[C@@H](CC(C)C)C(=O)N[C@@H](CC(=O)O)C(=O)N[C@@H](CCCCN)C(=O)N[C@@H](CCCCN)C(=O)N[C@@H](C)C(=O)N[C@@H](CCC(N)=O)C(=O)N[C@@H](CCCNC(=N)N)C(=O)N[C@@H](C)C(=O)N[C@@H](Cc1ccccc1)C(=O)N[C@H](C(=O)N[C@@H](CC(N)=O)C(=O)N[C@@H](Cc1c[nH]c2ccccc12)C(=O)N[C@@H](CC(C)C)C(=O)N[C@@H](CC(C)C)C(=O)N[C@@H](C)C(=O)NC(C)(C)C(=O)N[C@@H](CCCCN)C(N)=O)C(C)C
# B4: Compound 16 (peptide)
# peptide: H-Y[Aib]EGTFTSDYSIYLDSKAQRAFVNWLLA[Aib]K-NH2
# SMILES: CC[C@H](C)[C@H](NC(=O)[C@H](CO)NC(=O)[C@H](Cc1ccc(O)cc1)NC(=O)[C@H](CC(=O)O)NC(=O)[C@H](CO)NC(=O)[C@@H](NC(=O)[C@H](Cc1ccccc1)NC(=O)[C@@H](NC(=O)CNC(=O)[C@H](CCC(=O)O)NC(=O)C(C)(C)NC(=O)[C@@H](N)Cc1ccc(O)cc1)[C@@H](C)O)[C@@H](C)O)C(=O)N[C@@H](Cc1ccc(O)cc1)C(=O)N[C@@H](CC(C)C)C(=O)N[C@@H](CC(=O)O)C(=O)N[C@@H](CO)C(=O)N[C@@H](CCCCN)C(=O)N[C@@H](C)C(=O)N[C@@H](CCC(N)=O)C(=O)N[C@@H](CCCNC(=N)N)C(=O)N[C@@H](C)C(=O)N[C@@H](Cc1ccccc1)C(=O)N[C@H](C(=O)N[C@@H](CC(N)=O)C(=O)N[C@@H](Cc1c[nH]c2ccccc12)C(=O)N[C@@H](CC(C)C)C(=O)N[C@@H](CC(C)C)C(=O)N[C@@H](C)C(=O)NC(C)(C)C(=O)N[C@@H](CCCCN)C(N)=O)C(C)C
# B5: Compound 14 (peptide)
# peptide: H-Y[Aib]EGTFTSDYSIYLEKKAQRAFVNWLLA[Aib]K-NH2
# SMILES: CC[C@H](C)[C@H](NC(=O)[C@H](CO)NC(=O)[C@H](Cc1ccc(O)cc1)NC(=O)[C@H](CC(=O)O)NC(=O)[C@H](CO)NC(=O)[C@@H](NC(=O)[C@H](Cc1ccccc1)NC(=O)[C@@H](NC(=O)CNC(=O)[C@H](CCC(=O)O)NC(=O)C(C)(C)NC(=O)[C@@H](N)Cc1ccc(O)cc1)[C@@H](C)O)[C@@H](C)O)C(=O)N[C@@H](Cc1ccc(O)cc1)C(=O)N[C@@H](CC(C)C)C(=O)N[C@@H](CCC(=O)O)C(=O)N[C@@H](CCCCN)C(=O)N[C@@H](CCCCN)C(=O)N[C@@H](C)C(=O)N[C@@H](CCC(N)=O)C(=O)N[C@@H](CCCNC(=N)N)C(=O)N[C@@H](C)C(=O)N[C@@H](Cc1ccccc1)C(=O)N[C@H](C(=O)N[C@@H](CC(N)=O)C(=O)N[C@@H](Cc1c[nH]c2ccccc12)C(=O)N[C@@H](CC(C)C)C(=O)N[C@@H](CC(C)C)C(=O)N[C@@H](C)C(=O)NC(C)(C)C(=O)N[C@@H](CCCCN)C(N)=O)C(C)C
# B6: Compound 15 (peptide)
# peptide: H-Y[Aib]EGTFTSDYSIALEKKAQRAFVNWLLA[Aib]K-NH2
# SMILES: CC[C@H](C)[C@H](NC(=O)[C@H](CO)NC(=O)[C@H](Cc1ccc(O)cc1)NC(=O)[C@H](CC(=O)O)NC(=O)[C@H](CO)NC(=O)[C@@H](NC(=O)[C@H](Cc1ccccc1)NC(=O)[C@@H](NC(=O)CNC(=O)[C@H](CCC(=O)O)NC(=O)C(C)(C)NC(=O)[C@@H](N)Cc1ccc(O)cc1)[C@@H](C)O)[C@@H](C)O)C(=O)N[C@@H](C)C(=O)N[C@@H](CC(C)C)C(=O)N[C@@H](CCC(=O)O)C(=O)N[C@@H](CCCCN)C(=O)N[C@@H](CCCCN)C(=O)N[C@@H](C)C(=O)N[C@@H](CCC(N)=O)C(=O)N[C@@H](CCCNC(=N)N)C(=O)N[C@@H](C)C(=O)N[C@@H](Cc1ccccc1)C(=O)N[C@H](C(=O)N[C@@H](CC(N)=O)C(=O)N[C@@H](Cc1c[nH]c2ccccc12)C(=O)N[C@@H](CC(C)C)C(=O)N[C@@H](CC(C)C)C(=O)N[C@@H](C)C(=O)NC(C)(C)C(=O)N[C@@H](CCCCN)C(N)=O)C(C)C
# B7: Compound 2 (peptide)
# peptide: H-Y[Aib]EGTFTSDYSI[Aib]LDKKAQRAFVEWLLAQGPSSGAPPPS-NH2
# SMILES: CC[C@H](C)[C@H](NC(=O)[C@H](CO)NC(=O)[C@H](Cc1ccc(O)cc1)NC(=O)[C@H](CC(=O)O)NC(=O)[C@H](CO)NC(=O)[C@@H](NC(=O)[C@H](Cc1ccccc1)NC(=O)[C@@H](NC(=O)CNC(=O)[C@H](CCC(=O)O)NC(=O)C(C)(C)NC(=O)[C@@H](N)Cc1ccc(O)cc1)[C@@H](C)O)[C@@H](C)O)C(=O)NC(C)(C)C(=O)N[C@@H](CC(C)C)C(=O)N[C@@H](CC(=O)O)C(=O)N[C@@H](CCCCN)C(=O)N[C@@H](CCCCN)C(=O)N[C@@H](C)C(=O)N[C@@H](CCC(N)=O)C(=O)N[C@@H](CCCNC(=N)N)C(=O)N[C@@H](C)C(=O)N[C@@H](Cc1ccccc1)C(=O)N[C@H](C(=O)N[C@@H](CCC(=O)O)C(=O)N[C@@H](Cc1c[nH]c2ccccc12)C(=O)N[C@@H](CC(C)C)C(=O)N[C@@H](CC(C)C)C(=O)N[C@@H](C)C(=O)N[C@@H](CCC(N)=O)C(=O)NCC(=O)N1CCC[C@H]1C(=O)N[C@@H](CO)C(=O)N[C@@H](CO)C(=O)NCC(=O)N[C@@H](C)C(=O)N1CCC[C@H]1C(=O)N1CCC[C@H]1C(=O)N1CCC[C@H]1C(=O)N[C@@H](CO)C(N)=O)C(C)C
# B8: Compound 17 (peptide)
# peptide: H-Y[Aib]EGTFTSDYSIYLDEKAQRAFVNWLLA[Aib]K-NH2
# SMILES: CC[C@H](C)[C@H](NC(=O)[C@H](CO)NC(=O)[C@H](Cc1ccc(O)cc1)NC(=O)[C@H](CC(=O)O)NC(=O)[C@H](CO)NC(=O)[C@@H](NC(=O)[C@H](Cc1ccccc1)NC(=O)[C@@H](NC(=O)CNC(=O)[C@H](CCC(=O)O)NC(=O)C(C)(C)NC(=O)[C@@H](N)Cc1ccc(O)cc1)[C@@H](C)O)[C@@H](C)O)C(=O)N[C@@H](Cc1ccc(O)cc1)C(=O)N[C@@H](CC(C)C)C(=O)N[C@@H](CC(=O)O)C(=O)N[C@@H](CCC(=O)O)C(=O)N[C@@H](CCCCN)C(=O)N[C@@H](C)C(=O)N[C@@H](CCC(N)=O)C(=O)N[C@@H](CCCNC(=N)N)C(=O)N[C@@H](C)C(=O)N[C@@H](Cc1ccccc1)C(=O)N[C@H](C(=O)N[C@@H](CC(N)=O)C(=O)N[C@@H](Cc1c[nH]c2ccccc12)C(=O)N[C@@H](CC(C)C)C(=O)N[C@@H](CC(C)C)C(=O)N[C@@H](C)C(=O)NC(C)(C)C(=O)N[C@@H](CCCCN)C(N)=O)C(C)C
# How the values were obtained:
# human GLP-1 receptor = human GLP-1 receptor (human, UniProt P43220 24-463); test: cell-based or functional assay
# human GIP receptor = biological target: T1, human GIP receptor (human, UniProt P48546 22-466); test: cell-based or functional assay
# T1 sequence (looked up): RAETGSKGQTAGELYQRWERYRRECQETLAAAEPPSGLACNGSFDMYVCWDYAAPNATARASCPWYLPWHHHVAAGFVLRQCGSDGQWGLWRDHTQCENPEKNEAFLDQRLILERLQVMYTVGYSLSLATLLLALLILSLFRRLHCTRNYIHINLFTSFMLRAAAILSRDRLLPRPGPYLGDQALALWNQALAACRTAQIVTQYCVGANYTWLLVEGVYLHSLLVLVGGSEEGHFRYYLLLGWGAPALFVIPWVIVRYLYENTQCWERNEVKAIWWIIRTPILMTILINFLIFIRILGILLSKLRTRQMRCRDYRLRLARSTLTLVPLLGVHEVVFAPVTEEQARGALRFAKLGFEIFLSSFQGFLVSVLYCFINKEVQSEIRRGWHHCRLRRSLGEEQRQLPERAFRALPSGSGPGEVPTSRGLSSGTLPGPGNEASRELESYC
Binder,"EC50, cAMP induction in HEK293 cells expressing human GLP-1 R (human GLP-1 receptor)","EC50, cAMP induction in HEK293 cells expressing human GIP R (human GIP receptor)"
B1,0.47 nM,0.76 nM
B2,0.032 nM,0.14 nM
B3,0.01 nM,0.05 nM
B4,0.012 nM,0.053 nM
B5,0.0087 nM,0.036 nM
B6,0.01 nM,0.06 nM
B7,0.015 nM,0.0068 nM
B8,0.0074 nM,0.021 nM
